Assay results taken from paper PMC10229872.

Target: Programmed cell death-1 (human (endogenous in PBMCs)) (UniProt Q15116)
UniProt Q15116, sequence (Q15116 25-288): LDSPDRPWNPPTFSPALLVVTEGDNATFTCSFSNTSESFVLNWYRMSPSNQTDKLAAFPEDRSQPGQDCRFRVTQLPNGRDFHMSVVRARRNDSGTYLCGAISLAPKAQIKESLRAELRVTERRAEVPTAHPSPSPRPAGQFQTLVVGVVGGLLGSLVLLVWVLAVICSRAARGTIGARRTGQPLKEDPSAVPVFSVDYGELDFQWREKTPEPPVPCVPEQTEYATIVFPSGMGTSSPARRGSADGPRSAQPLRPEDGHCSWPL

| Substance | reduction of intracellular IFN-gamma in PBMCs stimulated with anti-CD3/CD28 antibodies (FACS) [%] | reduction of intracellular IL-2 in PBMCs stimulated with anti-CD3/CD28 antibodies (FACS) [%] | reduction of intracellular IL-10 in PBMCs stimulated with anti-CD3/CD28 antibodies (FACS) [%] | reduction of intracellular TNF-alpha in PBMCs stimulated with anti-CD3/CD28 antibodies (FACS) [%] | increase of intracellular IL-2 in PBMCs stimulated with anti-CD3/CD28 antibodies (FACS) [%] |
| --- | --- | --- | --- | --- | --- |
| soluble monomeric human PD-L1 (from UniProt Q9NZQ7 19-229) (domain or fragment) | 55.3 | 32.5 | 48.5 | 47.3 | – |
| soluble recombinant Fc fusion protein of hPD-L1 (from UniProt Q9NZQ7 19-229) | 15.1 | – | – | – | 14.2 |
